For one substance, half-life of reporter degradation in vitro with purified proteasomes and rapamycin (anti-HA Western) results are on record in patent US20050152888A1.

This assay concerns the target Rpn10 proteasome subunit C-terminally fused with Fpr1 (strain Rpn10-FPR1) (S. cerevisiae) (UniProt P38886). In words: cell-based or functional assay.

Chain of Rpn10 proteasome subunit C-terminally fused with Fpr1 (strain Rpn10-FPR1) (S. cerevisiae) (P38886 other isoform, or with tags, fused parts or gaps): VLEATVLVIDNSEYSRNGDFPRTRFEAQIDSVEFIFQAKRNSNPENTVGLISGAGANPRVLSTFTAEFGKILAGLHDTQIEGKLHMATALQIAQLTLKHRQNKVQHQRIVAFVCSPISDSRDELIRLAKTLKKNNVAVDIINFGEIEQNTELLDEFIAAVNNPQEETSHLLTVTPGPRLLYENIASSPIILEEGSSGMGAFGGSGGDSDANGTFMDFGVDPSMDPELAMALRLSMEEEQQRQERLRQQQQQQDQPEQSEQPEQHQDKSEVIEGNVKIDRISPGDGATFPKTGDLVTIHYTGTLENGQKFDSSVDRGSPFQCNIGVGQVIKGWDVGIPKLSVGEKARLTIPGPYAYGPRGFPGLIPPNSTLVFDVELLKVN

The substance “HA epitope-tagged Tor-His3 purified from a bacterial expression system (PROTet.e133-TOR-link-HIS3HA) (from UniProt P35169 1883-2078; P06633 1-220)” had a half-life of reporter degradation in vitro with purified proteasomes and rapamycin (anti-HA Western) of 15 min.
